Assay [1] addresses endogenous BAFF (human serum) (human (endogenous in serum)). Put plainly: SEC; 300 ul serum of an atacicept-treated SLE patient (pre-dose, 4 weeks of treatment, 12 weeks after treatment end) fractionated in PBS; BAFF ELISA and non-reducing anti-TACI Western blot of the fractions.
The next assay deals with Flag-hAPRIL (human). Put plainly: SEC; Superdex S200 Increase HR 10/30, PBS 10 ug/ml BSA, 0.7 ml/min; proteins alone or Flag-ligand with a 20-fold mass excess of atacicept; fractions analysed by Western blot; complexes of fractions 10 and 11 concentrated and run again. A general note: SEC sorts molecules by how far they enter the pores of the column.

Take endogenous BAFF (human serum) (ligand): the stoichiometry N (commonly the number of molecules, sites or subunits per partner or assembly) in assay [1] is 3.

Turning to Flag-hAPRIL (ligand), the stoichiometry N with Flag-hAPRIL (human) was determined as 3.

Source of the values: publication PMC9756848.
